Laboratory results as given in patent US20250145711A1 (Janssen / Centocor, published 2025).

B1: CD3B2030 (scFv)
scFv: QVQLVQSGAEVKKPGSSVKVSCKASGYTFTRSTMHWVKQAPGQGLEWIGYINPSSAYTNYNQKFQGRVTLTADKSTSTAYMELSSLRSEDTAVYYCASPQVHYDYNGFPYWGQGTLVTVSSGGSEGKSSGSGSESKSTGGSEIVLTQSPATLSASPGERVTLSCSASSSVSYMNWYQQKPGQAPRRWIYDSSKLASGVPARFSGSGSGRDYTLTISSLEPEDFAVYYCQQWSRNPPTFGGGTKVEIK
B2: CD3B2089 N106S (scFv)
scFv: QVQLVQSGAEVKKPGSSVKVSCKASGYTFTRSTMHWVRQAPGQGLEWMGYINPSSAYTNYAQKFQGRVTLTADKSTSTAYMELSSLRSEDTAVYYCASPQVHYDYSGFPYWGQGTLVTVSSGGSEGKSSGSGSESKSTGGSEIVLTQSPATLSASPGERVTLSCSASSSVSYMNWYQQKPGQAPRRWIYDSSKLASGVPARFSGSGSGRDYTLTISSLEPEDFAVYYCQQWSRNPPTFGGGTKVEIK
B3: CD3B2089 N106R (scFv)
scFv: QVQLVQSGAEVKKPGSSVKVSCKASGYTFTRSTMHWVRQAPGQGLEWMGYINPSSAYTNYAQKFQGRVTLTADKSTSTAYMELSSLRSEDTAVYYCASPQVHYDYRGFPYWGQGTLVTVSSGGSEGKSSGSGSESKSTGGSEIVLTQSPATLSASPGERVTLSCSASSSVSYMNWYQQKPGQAPRRWIYDSSKLASGVPARFSGSGSGRDYTLTISSLEPEDFAVYYCQQWSRNPPTFGGGTKVEIK
B4: CD3B2030 N106Q (scFv)
scFv: QVQLVQSGAEVKKPGSSVKVSCKASGYTFTRSTMHWVKQAPGQGLEWIGYINPSSAYTNYNQKFQGRVTLTADKSTSTAYMELSSLRSEDTAVYYCASPQVHYDYQGFPYWGQGTLVTVSSGGSEGKSSGSGSESKSTGGSEIVLTQSPATLSASPGERVTLSCSASSSVSYMNWYQQKPGQAPRRWIYDSSKLASGVPARFSGSGSGRDYTLTISSLEPEDFAVYYCQQWSRNPPTFGGGTKVEIK
notes: also called CD3B2030 NtoQ
B5: CD3B2089 (scFv)
scFv: QVQLVQSGAEVKKPGSSVKVSCKASGYTFTRSTMHWVRQAPGQGLEWMGYINPSSAYTNYAQKFQGRVTLTADKSTSTAYMELSSLRSEDTAVYYCASPQVHYDYNGFPYWGQGTLVTVSSGGSEGKSSGSGSESKSTGGSEIVLTQSPATLSASPGERVTLSCSASSSVSYMNWYQQKPGQAPRRWIYDSSKLASGVPARFSGSGSGRDYTLTISSLEPEDFAVYYCQQWSRNPPTFGGGTKVEIK
B6: CD3B2051 (scFv)
scFv: QVQLVQSGAEVKKPGSSVKVSCKASGYTFTRSTMHWVKQAPGQGLEWMGYINPSSAYTNYNQKFQGRVTLTADKSTSTAYMELSSLRSEDTAVYYCASPQVHYDYNGFPYWGQGTLVTVSSGGSEGKSSGSGSESKSTGGSEIVLTQSPATLSASPGERVTLSCSASSSVSYMNWYQQKPGQAPRRLIYDSSKLASGVPARFSGSGSGRDYTLTISSLEPEDFAVYYCQQWSRNPPTFGGGTKVEIK
B7: CD3B2089 N106T (scFv)
scFv: QVQLVQSGAEVKKPGSSVKVSCKASGYTFTRSTMHWVRQAPGQGLEWMGYINPSSAYTNYAQKFQGRVTLTADKSTSTAYMELSSLRSEDTAVYYCASPQVHYDYTGFPYWGQGTLVTVSSGGSEGKSSGSGSESKSTGGSEIVLTQSPATLSASPGERVTLSCSASSSVSYMNWYQQKPGQAPRRWIYDSSKLASGVPARFSGSGSGRDYTLTISSLEPEDFAVYYCQQWSRNPPTFGGGTKVEIK

How the values were obtained:
[1] = molecular target: T1, TRCW5 antigen (CD3δε-Fc-Avi) (biotinylated (site not stated)); experiment: ELISA after heat
T1 construct: also called recombinant CD3

[2] = molecular target: T1, TRCW5 antigen (CD3δε-Fc-Avi); experiment: ELISA
[3] = molecular target: T1, TRCW5 antigen (CD3δε-Fc-Avi); experiment: binding after heat
[4] = molecular target: T2, CD3 on primary human pan T cells (human, UniProt P07766 23-207); experiment: flow cytometry, pan T-cells
T2 construct: on cells it stands in the TCR/CD3 complex; also called Pan T-cells (CD3-positive); endogenous CD3
T2 sequence (P07766 23-207 limits assumed): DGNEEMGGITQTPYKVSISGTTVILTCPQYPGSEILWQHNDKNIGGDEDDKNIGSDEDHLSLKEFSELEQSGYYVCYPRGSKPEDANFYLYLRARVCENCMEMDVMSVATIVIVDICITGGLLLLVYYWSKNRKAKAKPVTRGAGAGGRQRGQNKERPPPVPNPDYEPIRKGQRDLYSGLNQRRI

T1 sequence (chain, as listed by the source mutant limits assumed): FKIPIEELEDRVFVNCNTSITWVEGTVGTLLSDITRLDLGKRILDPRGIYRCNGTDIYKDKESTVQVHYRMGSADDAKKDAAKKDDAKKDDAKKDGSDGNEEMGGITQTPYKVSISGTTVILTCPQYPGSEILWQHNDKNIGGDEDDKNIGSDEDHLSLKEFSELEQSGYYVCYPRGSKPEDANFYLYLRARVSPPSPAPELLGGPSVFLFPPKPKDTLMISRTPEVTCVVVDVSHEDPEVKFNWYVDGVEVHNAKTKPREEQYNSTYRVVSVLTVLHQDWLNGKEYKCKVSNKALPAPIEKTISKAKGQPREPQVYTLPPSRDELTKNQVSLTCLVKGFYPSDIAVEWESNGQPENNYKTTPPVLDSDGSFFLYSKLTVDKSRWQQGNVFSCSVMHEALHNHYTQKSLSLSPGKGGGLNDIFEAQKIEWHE

| % Retained 55° C. [1] [%] | % Retained 60° C. [1] [%] | % Retained 65° C. [1] [%] | EC50 [2] [nM] | % Retained 55° C. [3] [%] | % Retained 60° C. [3] [%] | % Retained 65° C. [3] [%] | % Binding retained on T-cells, 55° C. [4] [fraction] | % Binding retained on T-cells, 60° C. [4] [fraction] | % Binding retained on T-cells, 65° C. [4] [fraction] | % Binding retained on T-cells, RT [4] [fraction] | Binder |
| --- | --- | --- | --- | --- | --- | --- | --- | --- | --- | --- | --- |
| 106 | 101 | 36 | 8.84 | 104 | 102 | 41.3 | 1.05 | 1.1 | 0.757 | 1 | B1 |
|  |  |  | 10 | 102 | 90.2 | 5.4 |  |  |  |  | B2 |
|  |  |  | 11.2 | 102 | 103 | 60.4 |  |  |  |  | B3 |
| 111 | 105 | 55 | 10 | 110 | 97.5 | 72.3 |  |  |  |  | B4 |
| 111 | 108 | 41 | 8.79 | 104 | 109 | 15.1 | 1.08 | 0.494 | 0.111 | 1 | B5 |
| 109 | 94 | 32 | 8.73 | 104 | 95 | 10.9 |  |  |  |  | B6 |
|  |  |  | 11.1 | 108 | 76.7 | 1.4 |  |  |  |  | B7 |
